# Results: patent US7173007
# T1: recombinant full-length hCAP18/LL-37 (residues 31-170)
# T1 chain: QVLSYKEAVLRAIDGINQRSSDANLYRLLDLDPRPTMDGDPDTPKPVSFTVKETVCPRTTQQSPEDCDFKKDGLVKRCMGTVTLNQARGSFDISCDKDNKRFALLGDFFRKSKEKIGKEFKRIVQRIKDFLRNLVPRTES
# B1: human neutrophil elastase (Calbiochem) (protein)
# chain: IVGGRRARPHAWPFMVSLQLRGGHFCGATLIAPNFVMSAAHCVANVNVRAVRVVLGAHNLSRREPTRQVFAVQRIFENGYDPVNLLNDIVILQLNGSATINANVQVAQLPAQGRRLGNGVQCLAMGWGLLGRNRGIASVLQELNVTVVTSLCRRSNVCTLVRGRQAGVCFGDSGSPLVCNGLIHGIASFVRGGCASGLYPDAFAPVAQFVNWIDSIIQ
# Molecular target: T1, recombinant full-length hCAP18/LL-37 …
protein,measurement,value
B1,proteolytic processing of hCAP18/LL-37 (SDS-PAGE and immunoblot),"Elastase treatment generated a band migrating at the same size as synthetic LL-37, and a band at 14 kDa"
